In patent US20100104555A1:

Tests used:
Assay in all cases: cell-based or functional assay
[1] = target: E1E2 Env of HCV isolate UKN2B1.1 (genotype 2b) on HCVpp (hepatitis C virus genotype 2b, isolate UKN2B1.1)
[2] = target: E1E2 Env of HCV isolate H (genotype 1a) on HCVpp (hepatitis C virus genotype 1a, isolate H)
[3] = target: VSV (control pseudotype virus)
[4] = target: E1E2 Env of HCV isolate UKN5.15.7 (genotype 5) on HCVpp (hepatitis C virus genotype 5, isolate UKN5.15.7)
[5] = target: E1E2 Env of HCV isolate J6 (genotype 2a) on HCVpp (hepatitis C virus genotype 2a, isolate J6) (UniProt P26660)
[6] = target: E1E2 Env of HCV isolate UKN2A1.2 (genotype 2a) on HCVpp (hepatitis C virus genotype 2a, isolate UKN2A1.2)
[7] = target: E1E2 Env of HCV isolate UKN4.21.16 (genotype 4) on HCVpp (hepatitis C virus genotype 4, isolate UKN4.21.16)
[8] = target: E1E2 Env of HCV isolate UKN1B12.16 (genotype 1b) on HCVpp (hepatitis C virus genotype 1b, isolate UKN1B12.16)
[9] = target: E1E2 Env of HCV isolate OH8 (genotype 1b) on HCVpp (hepatitis C virus genotype 1b, isolate OH8)

Sequence of MAb AR3C (antibody) (VH): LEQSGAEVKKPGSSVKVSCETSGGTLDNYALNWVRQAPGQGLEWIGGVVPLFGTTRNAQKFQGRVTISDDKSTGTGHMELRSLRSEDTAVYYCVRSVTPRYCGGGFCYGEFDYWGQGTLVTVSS
Sequence of MAb AR3C (antibody) (VL): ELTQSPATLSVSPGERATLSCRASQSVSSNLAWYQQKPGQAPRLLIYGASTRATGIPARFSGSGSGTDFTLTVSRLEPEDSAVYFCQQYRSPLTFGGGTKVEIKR
Sequence of MAb AR2A (antibody) (VH): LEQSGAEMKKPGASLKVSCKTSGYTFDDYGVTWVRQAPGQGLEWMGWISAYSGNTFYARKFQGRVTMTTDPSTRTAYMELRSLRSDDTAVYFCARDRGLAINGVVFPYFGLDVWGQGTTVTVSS
Sequence of MAb AR2A (antibody) (VL): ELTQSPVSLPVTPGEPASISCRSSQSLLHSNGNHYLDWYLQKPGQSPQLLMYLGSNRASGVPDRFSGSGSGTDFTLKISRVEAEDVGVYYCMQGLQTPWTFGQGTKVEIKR
Sequence of MAb AR1B (antibody) (VH): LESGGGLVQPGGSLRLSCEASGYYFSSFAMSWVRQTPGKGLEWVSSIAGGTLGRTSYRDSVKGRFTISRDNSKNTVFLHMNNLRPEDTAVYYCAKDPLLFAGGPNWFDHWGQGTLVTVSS
Sequence of MAb AR1B (antibody) (VL): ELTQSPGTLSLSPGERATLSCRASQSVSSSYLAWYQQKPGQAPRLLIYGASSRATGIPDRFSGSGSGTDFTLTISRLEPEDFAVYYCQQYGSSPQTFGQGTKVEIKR
Sequence of MAb AR3B (antibody) (VH): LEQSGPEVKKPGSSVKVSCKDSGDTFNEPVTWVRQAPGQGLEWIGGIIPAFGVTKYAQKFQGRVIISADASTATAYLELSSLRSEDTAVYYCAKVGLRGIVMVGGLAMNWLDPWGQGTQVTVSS
Sequence of MAb AR3B (antibody) (VL): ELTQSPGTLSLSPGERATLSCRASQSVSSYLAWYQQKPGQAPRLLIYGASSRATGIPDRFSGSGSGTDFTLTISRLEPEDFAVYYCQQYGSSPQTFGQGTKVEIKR
Sequence of E1E2 Env of HCV isolate J6 (genotype 2a) on HCVpp (hepatitis C virus genotype 2a, isolate J6) (P26660 192-750 limits assumed): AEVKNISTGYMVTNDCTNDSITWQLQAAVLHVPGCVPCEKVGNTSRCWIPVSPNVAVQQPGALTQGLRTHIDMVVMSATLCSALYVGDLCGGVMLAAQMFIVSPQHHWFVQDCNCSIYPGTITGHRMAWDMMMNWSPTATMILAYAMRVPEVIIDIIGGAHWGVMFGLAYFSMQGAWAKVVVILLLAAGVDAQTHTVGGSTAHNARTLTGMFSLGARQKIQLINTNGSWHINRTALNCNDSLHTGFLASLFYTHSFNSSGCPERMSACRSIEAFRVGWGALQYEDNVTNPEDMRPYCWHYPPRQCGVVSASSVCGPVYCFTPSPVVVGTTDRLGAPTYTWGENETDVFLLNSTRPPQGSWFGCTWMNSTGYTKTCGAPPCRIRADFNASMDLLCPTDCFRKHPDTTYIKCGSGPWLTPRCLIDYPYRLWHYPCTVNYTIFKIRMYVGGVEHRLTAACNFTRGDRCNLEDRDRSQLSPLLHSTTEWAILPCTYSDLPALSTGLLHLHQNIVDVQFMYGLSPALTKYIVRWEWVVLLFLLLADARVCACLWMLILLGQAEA

## MAb AR3C (antibody)
[1]
  Neutralizing activity (IC50), HCVpp: 10 µg/mL
[2]
  Neutralizing activity (IC50), HCVpp: 1 µg/mL
[3]
  Neutralizing activity (IC50), control pseudotype: > 50 µg/mL
[4]
  Neutralizing activity (IC50), HCVpp: 1 µg/mL
[5]
  Neutralizing activity (IC50), HCVpp: 10 µg/mL
[6]
  Neutralizing activity (IC50), HCVpp: 10 µg/mL
[7]
  Neutralizing activity (IC50), HCVpp: 1 µg/mL
[8]
  Neutralizing activity (IC50), HCVpp: 1 µg/mL
[9]
  Neutralizing activity (IC50), HCVpp: 5 µg/mL

## MAb AR1A (antibody)
[1]
  Neutralizing activity (IC50), HCVpp: > 50 µg/mL
[3]
  Neutralizing activity (IC50), control pseudotype: > 50 µg/mL
[4]
  Neutralizing activity (IC50), HCVpp: > 50 µg/mL
[5]
  Neutralizing activity (IC50), HCVpp: > 50 µg/mL
[6]
  Neutralizing activity (IC50), HCVpp: > 50 µg/mL
[7]
  Neutralizing activity (IC50), HCVpp: > 50 µg/mL
[8]
  Neutralizing activity (IC50), HCVpp: > 50 µg/mL
[9]
  Neutralizing activity (IC50), HCVpp: > 50 µg/mL

## MAb AR3D (antibody)
[1]
  Neutralizing activity (IC50), HCVpp: 25 µg/mL
[2]
  Neutralizing activity (IC50), HCVpp: 1 µg/mL
[3]
  Neutralizing activity (IC50), control pseudotype: > 50 µg/mL
[4]
  Neutralizing activity (IC50), HCVpp: 10 µg/mL
[5]
  Neutralizing activity (IC50), HCVpp: 50 µg/mL
[6]
  Neutralizing activity (IC50), HCVpp: 25 µg/mL
[7]
  Neutralizing activity (IC50), HCVpp: 1 µg/mL
[8]
  Neutralizing activity (IC50), HCVpp: 1 µg/mL
[9]
  Neutralizing activity (IC50), HCVpp: 5 µg/mL

## MAb AR1B (antibody)
[1]
  Neutralizing activity (IC50), HCVpp: > 50 µg/mL
[3]
  Neutralizing activity (IC50), control pseudotype: > 50 µg/mL
[4]
  Neutralizing activity (IC50), HCVpp: > 50 µg/mL
[5]
  Neutralizing activity (IC50), HCVpp: > 50 µg/mL
[6]
  Neutralizing activity (IC50), HCVpp: > 50 µg/mL
[7]
  Neutralizing activity (IC50), HCVpp: > 50 µg/mL
[8]
  Neutralizing activity (IC50), HCVpp: > 50 µg/mL
[9]
  Neutralizing activity (IC50), HCVpp: > 50 µg/mL

## MAb AR2A (antibody)
[1]
  Neutralizing activity (IC50), HCVpp: 10 µg/mL
[2]
  Neutralizing activity (IC50), HCVpp: 5 µg/mL
[3]
  Neutralizing activity (IC50), control pseudotype: > 50 µg/mL
[4]
  Neutralizing activity (IC50), HCVpp: 10 µg/mL
[5]
  Neutralizing activity (IC50), HCVpp: > 50 µg/mL
[6]
  Neutralizing activity (IC50), HCVpp: 5 µg/mL
[7]
  Neutralizing activity (IC50), HCVpp: 1 µg/mL
[8]
  Neutralizing activity (IC50), HCVpp: > 50 µg/mL
[9]
  Neutralizing activity (IC50), HCVpp: > 50 µg/mL

## MAb AR3B (antibody)
[1]
  Neutralizing activity (IC50), HCVpp: 10 µg/mL
[2]
  Neutralizing activity (IC50), HCVpp: 1 µg/mL
[3]
  Neutralizing activity (IC50), control pseudotype: > 50 µg/mL
[4]
  Neutralizing activity (IC50), HCVpp: 1 µg/mL
[5]
  Neutralizing activity (IC50), HCVpp: 10 µg/mL
[6]
  Neutralizing activity (IC50), HCVpp: 5 µg/mL
[7]
  Neutralizing activity (IC50), HCVpp: 1 µg/mL
[8]
  Neutralizing activity (IC50), HCVpp: 1 µg/mL
[9]
  Neutralizing activity (IC50), HCVpp: 5 µg/mL
